Data set [1] deals with zebrafish Olig2, mammalian two-hybrid fusion (zebrafish). Nature of the data set: two-hybrid.
In data set [2] the target is zebrafish Olig1, mammalian two-hybrid fusion (zebrafish). Description: two-hybrid.
The target of data set [3] is T1, Olig1 (Danio rerio (zebrafish), UniProt Q5QJR2 1-235).
T1 sequence: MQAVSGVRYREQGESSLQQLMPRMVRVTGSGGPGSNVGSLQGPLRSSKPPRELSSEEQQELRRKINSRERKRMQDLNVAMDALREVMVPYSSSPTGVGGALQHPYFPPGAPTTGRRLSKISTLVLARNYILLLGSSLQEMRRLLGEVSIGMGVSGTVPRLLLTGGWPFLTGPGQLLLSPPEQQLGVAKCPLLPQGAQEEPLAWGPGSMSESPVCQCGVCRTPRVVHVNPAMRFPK
Nature of the data set: EMSA. (In general: In EMSA bound probe runs differently from free probe, usually more slowly.)

Data set [4] has as its target T2, Sox10 (Danio rerio (zebrafish), UniProt Q90XD1 1-485). Description: EMSA.
Data set [5] concerns the target T2, Sox10. Description: competition.
The target in data set [6] is T1, Olig1. Description: competition.

On to “zebrafish Olig1, mammalian two-hybrid fusion (natural protein)”, for which the fold increase of luciferase activity in data set [1] and in data set [2] was 8 fold throughout.

B1: EbS2 (dsDNA)
DNA 1: CAAGTCGGGGCAGATGTGGACTAGAACAATAGCAGCTCC
DNA 2: GGAGCTGCTATTGTTCTAGTCCACATCTGCCCCGACTTG
On to B1, for which the binding result in data set [3] and in data set [4] was “binds” in each case.

B2: EbS2mut (dsDNA)
DNA 1: CAAGTCGGGGCAGATGTGGACTAGGCCGCTAGCAGCTCC
DNA 2: GGAGCTGCTAGCGGCCTAGTCCACATCTGCCCCGACTTG
Take B2: in data set [5], the binding result was “no binding”.

B3: EbmutS2 (dsDNA)
DNA 1: CAAGTCGGGGTTGTAATGGACTAGAACAATAGCAGCTCC
DNA 2: GGAGCTGCTATTGTTCTAGTCCATTACAACCCCGACTTG
Turning to B3, the binding result in data set [6] is reported as “no binding”.

The values above are taken from PMC6329447.
